# Reference: paper PMC6684614, “Histone chaperone exploits intrinsic disorder to switch acetylation specificity” (Nature Communications, 2019)
# B1: Vps75 (vacuolar protein sorting-associated protein 75) homodimer (natural protein, S. cerevisiae, UniProt P53853 1-264, looked up)
# chain: MMSDQENENEHAKAFLGLAKCEEEVDAIEREVELYRLNKMKPVYEKRDAYIDEIAEFWKIVLSQHVSFANYIRASDFKYIDTIDKIKVEWLALESEMYDTRDFSITFHFHGIEGDFKEQQVTKVFQIKKGKDDQEDGILTSEPVPIEWPQSYDSINPDLIKDKRSPEGKKKYRQGMKTIFGWFRWTGLKPGKEFPHGDSLASLFSEEIYPFCVKYYAEAQRDLEDEEGESGLSADGDSEDDDGSLGEVDLPLSDEEPSSKKRKV
# notes: Vps75, S. cerevisiae, full length; the C-terminal acidic domain (CTAD) is 226-264; isotope-labelled (ILV methyl, 15N, 2H) in some samples; also called Vps75_(2); ScVps75; source: E. coli BL21(DE3), purified (IMAC, TEV cleavage, ion exchange, SEC); not shown: His6, N-terminal, cleaved
# Target: the molecule itself
# Assay: solution structural model from NMR PRE distance restraints and SANS (M3 data-driven docking with HADDOCK); 145 PRE-derived distance restraints and six SANS curves; building blocks PDB 2hue and MD conformers of PDB 3q66; 33 structures, pairwise backbone RMSD 2.0 A; 50 mM citrate pH 6.5, 150 mM NaCl, 298 K
protein,measurement,value
B1,stoichiometry N,2 subunits
